In PMC6585716 (Biopolymers, 2017) one finds EC50 data, which are given here for 1 molecule.

code X = not defined here; Az4 = not defined here

This experiment addresses Recombinant human vascular endothelial growth factor (VEGF165) (human, UniProt P15692-4 1-191). The settings on record: both partners purified.

Recombinant human vascular endothelial growth factor (VEGF165), sequence (P15692 other isoform, or with tags, fused parts or gaps): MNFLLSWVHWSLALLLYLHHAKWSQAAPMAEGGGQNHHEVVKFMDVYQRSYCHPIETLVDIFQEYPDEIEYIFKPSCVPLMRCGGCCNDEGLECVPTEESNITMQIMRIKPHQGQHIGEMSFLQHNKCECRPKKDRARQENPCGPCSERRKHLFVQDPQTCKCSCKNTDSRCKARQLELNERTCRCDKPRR

B1: AnchorV (X-VEPNCDIHVMWEWECFERL-Az4) (peptide)
peptide: {code X}-VEPNCDIHVMWEWECFERL-Az4
modifications: cysteine pairing not given here; reading uncertain
notes: also called anti-VEGF cyclic peptide ligand
Broadly, the EC50 is the concentration at which the effect is half-maximal. Consider B1, for which the EC50 worked out at 140 ± 21 nM.
